B1: IgG1-F1103 (antibody)
heavy: QVQLQESGPGLVKPSETLSLTCAVSGHSISHDHAWSWVRQPPGEGLEWIGFISYSGITNYNPSLQGRVTISRDNSKNTLYLQMNSLRAEDTAVYYCARSLARTTAMDYWGEGTLVTVSSASTKGPSVFPLAPSSKSTSGGTAALGCLVKDYFPEPVTVSWNSGALTSGVHTFPAVLQSSGLYSLSSVVTVPSSSLGTQTYICNVNHKPSNTKVDKKVEPKSCDKTHTCPPCPAPELLGGPDVFLFPPKPKDTLYISRTPEVTCVVVDVSHEDPEVKFNWYVDGVEVHNAKTKPREEQYNSTYRVVSVLQVLHADWLNGKEYKCKVSNDAYPAPIEKTISKAKGQPREPQVYTLPPSRDELTKNQVSLTCLVKGFYPSDIAVEWESNGQPENNYKTTPPVLDSDGSFFLYSKLTVDKSRWQQGNVFSCSVMHEALHYHYTQKSLSLSP
light: not shown
notes: EU numbering; copies: 2 + 2
B2: IgG1-F1107 (antibody)
heavy: QVQLQESGPGLVKPSETLSLTCAVSGHSISHDHAWSWVRQPPGEGLEWIGFISYSGITNYNPSLQGRVTISRDNSKNTLYLQMNSLRAEDTAVYYCARSLARTTAMDYWGEGTLVTVSSASTKGPSVFPLAPSSKSTSGGTAALGCLVKDYFPEPVTVSWNSGALTSGVHTFPAVLQSSGLYSLSSVVTVPSSSLGTQTYICNVNHKPSNTKVDKKVEPKSCDKTHTCPPCPAPELLGGPSVFLFPPKPKDTLYISRTPEVTCVVVDVSHEDPEVKFNWYVDGVEVHNAKTKPREEQYNSTYRVVSVLTVLHQDWLNGKEYKCKVSNKALPAPIEKTISKAKGQPREPQVYTLPPSRDELTKNQVSLTCLVKGFYPSDIAVEWESNGQPENNYKTTPPVLDSDGSFFLYSKLTVDKSRWQQGNDFSCSVMHEALHYHVTQKSLSLSP
light: not shown
notes: EU numbering; copies: 2 + 2
B3: IgG1-F1109 (antibody)
heavy: QVQLQESGPGLVKPSETLSLTCAVSGHSISHDHAWSWVRQPPGEGLEWIGFISYSGITNYNPSLQGRVTISRDNSKNTLYLQMNSLRAEDTAVYYCARSLARTTAMDYWGEGTLVTVSSASTKGPSVFPLAPSSKSTSGGTAALGCLVKDYFPEPVTVSWNSGALTSGVHTFPAVLQSSGLYSLSSVVTVPSSSLGTQTYICNVNHKPSNTKVDKKVEPKSCDKTHTCPPCPAPELLGGPSVFLFPPKPKDTLYISRTPEVTCVVVDVSHEDPEVKFNWYVDGVEVHNAKTKPREEQYNSTYRVVSVLTVLHQDWLNGKEYKCKVSNKALPAPIEKTISKAKGQPREPQVYTLPPSRDELTKNQVSLTCLVKGFYPSDIAVEWESNGQPENNYKTTPPVLDSDGSFFLYSKLTVDKSRWQQGNTFSCSVMHEALHYHVTQKSLSLSP
light: not shown
notes: EU numbering; copies: 2 + 2
B4: IgG1-F1111 (antibody)
heavy: QVQLQESGPGLVKPSETLSLTCAVSGHSISHDHAWSWVRQPPGEGLEWIGFISYSGITNYNPSLQGRVTISRDNSKNTLYLQMNSLRAEDTAVYYCARSLARTTAMDYWGEGTLVTVSSASTKGPSVFPLAPSSKSTSGGTAALGCLVKDYFPEPVTVSWNSGALTSGVHTFPAVLQSSGLYSLSSVVTVPSSSLGTQTYICNVNHKPSNTKVDKKVEPKSCDKTHTCPPCPAPELLGGPSVFLFPPKPKDTLYISRTPEVTCVVVDVSHEDPEVKFNWYVDGVEVHNAKTKPREEQYNSTYRVVSVLTVLHQDWLNGKEYKCKVSNKALPAPIEKTISKAKGQPREPQVYTLPPSRDELTKNQVSLTCLVKGFYPSDIAVEWESNGQPENNYKTTPPVLDSDGSFFLYSKLTVDKSRWQQGNVFKCSVMHEALHYHVTQKSLSLSP
light: not shown
notes: EU numbering; copies: 2 + 2
B5: IgG1-F1104 (antibody)
heavy: QVQLQESGPGLVKPSETLSLTCAVSGHSISHDHAWSWVRQPPGEGLEWIGFISYSGITNYNPSLQGRVTISRDNSKNTLYLQMNSLRAEDTAVYYCARSLARTTAMDYWGEGTLVTVSSASTKGPSVFPLAPSSKSTSGGTAALGCLVKDYFPEPVTVSWNSGALTSGVHTFPAVLQSSGLYSLSSVVTVPSSSLGTQTYICNVNHKPSNTKVDKKVEPKSCDKTHTCPPCPAPELLGGPSVFLFPPKPKDTLYISRTPEVTCVVVDVSHEDPEVKFNWYVDGVEVHNAKTKPREEQYNSTYRVVSVLTVLHQDWLNGKEYKCKVSNKALPAPIEKTISKAKGQPREPQVYTLPPSRDELTKNQVSLTCLVKGFYPSDIAVEWESNGQPENNYKTTPPVLDSDGSFFLYSKLTVDKSRWQQGNEFRCSVMHEALHYHVTQKSLSLSP
light: not shown
notes: EU numbering; copies: 2 + 2
B6: IgG1-F1110 (antibody)
heavy: QVQLQESGPGLVKPSETLSLTCAVSGHSISHDHAWSWVRQPPGEGLEWIGFISYSGITNYNPSLQGRVTISRDNSKNTLYLQMNSLRAEDTAVYYCARSLARTTAMDYWGEGTLVTVSSASTKGPSVFPLAPSSKSTSGGTAALGCLVKDYFPEPVTVSWNSGALTSGVHTFPAVLQSSGLYSLSSVVTVPSSSLGTQTYICNVNHKPSNTKVDKKVEPKSCDKTHTCPPCPAPELLGGPSVFLFPPKPKDTLYISRTPEVTCVVVDVSHEDPEVKFNWYVDGVEVHNAKTKPREEQYNSTYRVVSVLTVLHQDWLNGKEYKCKVSNKALPAPIEKTISKAKGQPREPQVYTLPPSRDELTKNQVSLTCLVKGFYPSDIAVEWESNGQPENNYKTTPPVLDSDGSFFLYSKLTVDKSRWQQGNQFSCSVMHEALHYHVTQKSLSLSP
light: not shown
notes: EU numbering; copies: 2 + 2
B7: IgG1-F1106 (antibody)
heavy: QVQLQESGPGLVKPSETLSLTCAVSGHSISHDHAWSWVRQPPGEGLEWIGFISYSGITNYNPSLQGRVTISRDNSKNTLYLQMNSLRAEDTAVYYCARSLARTTAMDYWGEGTLVTVSSASTKGPSVFPLAPSSKSTSGGTAALGCLVKDYFPEPVTVSWNSGALTSGVHTFPAVLQSSGLYSLSSVVTVPSSSLGTQTYICNVNHKPSNTKVDKKVEPKSCDKTHTCPPCPAPELLGGPSVFLFPPKPKDTLYISRTPEVTCVVVDVSHEDPEVKFNWYVDGVEVHNAKTKPREEQYNSTYRVVSVLTVLHQDWLNGKEYKCKVSNKALPAPIEKTISKAKGQPREPQVYTLPPSRDELTKNQVSLTCLVKGFYPSDIAVEWESNGQPENNYKTTPPVLDSDGSFFLYSKLTVDKSRWQQGNVFSCSVMHEALHYHVTRKELSLSP
light: not shown
notes: EU numbering; copies: 2 + 2
B8: IgG1-F1105 (antibody)
heavy: QVQLQESGPGLVKPSETLSLTCAVSGHSISHDHAWSWVRQPPGEGLEWIGFISYSGITNYNPSLQGRVTISRDNSKNTLYLQMNSLRAEDTAVYYCARSLARTTAMDYWGEGTLVTVSSASTKGPSVFPLAPSSKSTSGGTAALGCLVKDYFPEPVTVSWNSGALTSGVHTFPAVLQSSGLYSLSSVVTVPSSSLGTQTYICNVNHKPSNTKVDKKVEPKSCDKTHTCPPCPAPELLGGPSVFLFPPKPKDTLYISRTPEVTCVVVDVSHEDPEVKFNWYVDGVEVHNAKTKPREEQYNSTYRVVSVLTVLHQDWLNGKEYKCKVSNKALPAPIEKTISKAKGQPREPQVYTLPPSRDELTKNQVSLTCLVKGFYPSDIAVEWESNGQPENNYKTTPPVLDSDGSFFLYSKLTVDKSRWQQGNSFRCSVMHEALHYHVTQKSLSLSP
light: not shown
notes: EU numbering; copies: 2 + 2
B9: IgG1-F1108 (antibody)
heavy: QVQLQESGPGLVKPSETLSLTCAVSGHSISHDHAWSWVRQPPGEGLEWIGFISYSGITNYNPSLQGRVTISRDNSKNTLYLQMNSLRAEDTAVYYCARSLARTTAMDYWGEGTLVTVSSASTKGPSVFPLAPSSKSTSGGTAALGCLVKDYFPEPVTVSWNSGALTSGVHTFPAVLQSSGLYSLSSVVTVPSSSLGTQTYICNVNHKPSNTKVDKKVEPKSCDKTHTCPPCPAPELLGGPSVFLFPPKPKDTLYISRTPEVTCVVVDVSHEDPEVKFNWYVDGVEVHNAKTKPREEQYNSTYRVVSVLTVLHQDWLNGKEYKCKVSNKALPAPIEKTISKAKGQPREPQVYTLPPSRDELTKNQVSLTCLVKGFYPSDIAVEWESNGQPENNYKTTPPVLDSDGSFFLYSKLTVDKSRWQQGNKFSCSVMHEALHYHVTQKSLSLSP
light: not shown
notes: EU numbering; copies: 2 + 2
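Also: test antibodies captured on a Protein L chip with human FcRn flowed over as analyte, KD obtained as the ratio of dissociation to association rate constants.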

The target of the experiment is T1, soluble human FcRn complexed with β2-microglobulin (human, UniProt P61769 21-119, limits assumed).
T1 construct: also called hFcRn
T1 sequence (chain, as listed by the source limits assumed, chain 1 of 2): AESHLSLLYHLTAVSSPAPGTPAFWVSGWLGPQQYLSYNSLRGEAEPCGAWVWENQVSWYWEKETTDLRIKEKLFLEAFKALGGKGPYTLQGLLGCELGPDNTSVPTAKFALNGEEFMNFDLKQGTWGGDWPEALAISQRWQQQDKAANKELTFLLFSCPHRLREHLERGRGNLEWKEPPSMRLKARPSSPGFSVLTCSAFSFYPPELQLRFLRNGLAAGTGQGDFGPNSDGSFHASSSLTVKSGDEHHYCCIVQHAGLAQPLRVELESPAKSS
T1 sequence (P61769 21-119 limits assumed, chain 2 of 2): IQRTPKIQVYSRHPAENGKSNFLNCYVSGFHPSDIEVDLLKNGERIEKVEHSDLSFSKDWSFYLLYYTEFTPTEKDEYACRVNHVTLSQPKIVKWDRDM
Kind of experiment: Biacore SPR, pH 7.0. (SPR reads the build-up and loss of mass on a sensor chip optically.)
Broadly, the Kd is a measure of binding affinity in units of concentration. A high value points to weaker binding. In turn, B1 yielded a Kd of 61.1 nM.

Molecule B2 came in with a Kd of 123 nM.

B3 yielded a Kd of 127 nM.

On to B4, for which the Kd was 165 nM.

In turn, B5 had a Kd of 177 nM.

B6 came in with a Kd of 133 nM.

As to B7, the Kd amounted to 142 nM.

B8 displayed a Kd of 154 nM.

B9 displayed a Kd of 126 nM.

The values above are taken from patent publication US20200199241A1 (Chugai, published 2020).
